T1: IL-18 receptor (IL-18Rα/IL-18Rβ) overexpressed on HEK-Blue IL-18 cells (Homo sapiens (Human), UniProt Q13478 19-541; O95256 20-599)
T1 sequence 1: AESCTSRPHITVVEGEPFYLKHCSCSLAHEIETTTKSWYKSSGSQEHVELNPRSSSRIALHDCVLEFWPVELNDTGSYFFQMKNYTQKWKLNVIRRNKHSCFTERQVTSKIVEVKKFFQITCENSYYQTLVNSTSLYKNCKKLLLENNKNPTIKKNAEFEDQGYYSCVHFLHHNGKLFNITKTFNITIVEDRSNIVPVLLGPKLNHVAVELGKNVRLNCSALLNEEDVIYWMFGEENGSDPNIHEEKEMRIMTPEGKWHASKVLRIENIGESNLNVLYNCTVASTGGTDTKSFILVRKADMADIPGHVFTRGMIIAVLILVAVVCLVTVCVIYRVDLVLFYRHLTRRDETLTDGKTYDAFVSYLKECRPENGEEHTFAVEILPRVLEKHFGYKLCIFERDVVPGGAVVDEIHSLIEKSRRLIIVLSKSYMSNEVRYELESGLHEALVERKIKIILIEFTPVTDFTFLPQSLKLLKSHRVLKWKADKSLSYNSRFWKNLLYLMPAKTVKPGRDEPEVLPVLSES
T1 sequence 2: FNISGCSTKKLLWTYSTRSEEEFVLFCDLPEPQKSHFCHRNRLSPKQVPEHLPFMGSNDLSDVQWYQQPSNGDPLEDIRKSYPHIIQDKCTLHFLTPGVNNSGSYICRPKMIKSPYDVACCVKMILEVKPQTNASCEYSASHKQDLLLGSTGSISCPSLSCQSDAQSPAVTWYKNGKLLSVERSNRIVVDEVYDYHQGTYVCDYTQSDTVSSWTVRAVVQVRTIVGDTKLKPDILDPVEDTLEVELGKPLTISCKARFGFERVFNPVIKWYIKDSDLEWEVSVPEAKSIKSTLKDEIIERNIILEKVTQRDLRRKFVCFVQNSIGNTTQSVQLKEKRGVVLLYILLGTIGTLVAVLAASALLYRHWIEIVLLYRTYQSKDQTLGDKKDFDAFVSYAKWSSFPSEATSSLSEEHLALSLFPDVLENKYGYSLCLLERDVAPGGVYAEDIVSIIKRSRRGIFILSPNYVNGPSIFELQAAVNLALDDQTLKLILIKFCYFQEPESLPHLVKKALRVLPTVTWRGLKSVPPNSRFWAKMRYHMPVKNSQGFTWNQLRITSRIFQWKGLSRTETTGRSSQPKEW

B1: DGL245 (bispecific antibody, V domains shown)
V domain 1: EVQLVESGGGLVQPGGSLRLSCAASGFTLDYYTIGWFRQAPGKEREGVSCISSSGGSTNYADYVKGRFTISRDNAKNTVSLQMNSLKPEDTAVYYCAAESLIPLVETMCVMSVDDYDYWGQGTQVTVSS
V domain 2: QLQLVESGGGLVQAGGSLRLSCAASRSITFSHNVMGWYRQAPGKQRELVASIGSGGSTNYVDSVKGRATISRDNAKKTVYLQMNSLKPEDTAVYYCGVVVGVYRGSLGQGTQVTVSS
B2: DGL248 (bispecific antibody, V domains shown)
V domain 1: QLQLVESGGGLVQPGGSLRLSCAASGFTLDYYAISWFRQVPGKEREGVSCISSNGGSTAYADSVKGRFTISRDNTKNTAYLQMNSLKPEDTAIYYCAASARTIQAMCQRSNFPTRYDYWGQGTQVTVSS
V domain 2: B1 V domain 2
B3: DGL247 (bispecific antibody, V domains shown)
V domain 1: QVQLVESGGGSVQAGDSLRLSCAGSGRTFSSYVLGWFRQAPGKEREFVASISWSGDGTYYADSVKGRFTISRDNAENMVYLQMNSLKPEDTAVYYCAADGTTALAMSRLDASTYDFDYWGQGTQVTVSS
V domain 2: B1 V domain 2
B4: DGL249 (bispecific antibody, V domains shown)
V domain 1: QVQLVESGGGLVQPGGSLRLSCTASGSDLHHYAIGWFRQAPGKEREGVSCISTTGAGTNYADSVKGRFTISRDNAKNTVYLQMDSLKPEETAVYYCAADGPSAIAGCVRTVASMYRYWGQGAQVTVSS
V domain 2: B1 V domain 2
B5: DGL256 (bispecific antibody, V domains shown)
V domain 1: B4 V domain 1
V domain 2: QVQLVESGGGLVQPGGSLRLSCAASRITFSIYDMGWYRQAPGKQRELVASITRRGSTNYADSTKGRFTISRDNGKNTMYLQGNSLKPEDTAVYYCNARDILGRDYWGQGTQVTVSS
B6: DGL293 (bispecific antibody, V domains shown)
V domain 1: QVQLVESGGGLVQAGGSLRLSCAASGRTFSSYDMGWFRQAPGKEREFVAALRWSGGSTSYADSVKGRFTISRDNAKNTVYLHMNSLKPEDTAVYYCAATLETDSGTYWADYWGQGTQVTVSS
V domain 2: QVQLVESGGDLVLPGGSLKLSCEASGSISSRNSMAWYRRAPGKQRELVAAISSISSGGRTDYADFVKGRFTIFRDTAKNMVYLQMNNLKPEDTAVYDCDDPIRVASLAYDDWGQGTQVTVSS
B7: DGL295 (bispecific antibody, V domains shown)
V domain 1: QVQLQESGGGLVQPGGSARLSCVASGIIFNDYHMGWYRQAPGKQRDLVAGITAGGSTTYADSVKGRFTISRDNAKHTVYLQMNNLSPEDTAVYYCNTFYNAILDWGKGTLVTVSS
V domain 2: B6 V domain 2
B8: DGL298 (bispecific antibody, V domains shown)
V domain 1: B6 V domain 1
V domain 2: QVQLVESGGGLVLPGESLRLSCVVSGTIDNINSMGWYRQAPGKQRELVAYITKLGSANYADSVEGRFTISRDNAKKTVHLQMNSLKPEDTAVYYCHANERGRITWAQGTQVTVSS
B9: DGL294 (bispecific antibody, V domains shown)
V domain 1: EVQLVESGGGLVQPGGSLRLSCAASGSIFSINAMGWYRQAPGKQREVVATSTGGGMTNYADSVKGRFTISRDNAKNTVYLQMNSLKPEDTAVYYCNADKDPFFPGDYWGQGTQVTVSS
V domain 2: B6 V domain 2
B10: DGL297 (bispecific antibody, V domains shown)
V domain 1: QVQLVESGGGLVQAGGSLRLSCAASGRTFSSYTMGWFRQAPGKEREFVAAISWSAGRTYYADSVKGRFTISRDNAKNTVYLQMNSLKPEDTAVYFCAAEEAPDWAPIDCSGYGCLSLYDYWGQGTQVTVSS
V domain 2: B6 V domain 2
B11: DGL250 (bispecific antibody, V domains shown)
V domain 1: QVQLVESGGGLVQAGGSLRLSCAASGRTFSKHAMGWFRQAPGKEREFVAAIDWSGGSTYYADSVKGRFTISRDNAKNTVYLQMDSLKPEDTAVYYCAADSYTDYAQLWLPELESEYDYWGQGTQVTVSS
V domain 2: QLQLVESGGGLVQPGGSLRLSCAAPGRIFGLNAMGWYRQAPGKQRELVASITTGGSTNYADSGKGRFTLSRSNAQNTVYRQMNSLQPEDTAVYYCNAKRGLNLNYWGQGTQVTVSS
B12: DGL253 (bispecific antibody, V domains shown)
V domain 1: B11 V domain 1
V domain 2: QVQLQESGGGLVQAGGSPRLSCAVSGTAFNINNFMGWYRQAPGKQRELVATITGSSTTNYASSVKGRFTISRDSAKNTVYLQMNSLKPEDTAVYYCNLRRGGWYNYWGQGTQVTVSS
B13: DGL255 (bispecific antibody, V domains shown)
V domain 1: B11 V domain 1
V domain 2: B5 V domain 2
B14: DGL251 (bispecific antibody, V domains shown)
V domain 1: B11 V domain 1
V domain 2: EVQLVESGGGLVQTGGSLRLSCVASETITDTFRMGWYRQAPGQQRELVAAITHTSETTYGDSVTGRFTISGDTAKNMVHLQMNSLKPEDTGVYYCNIRAWRRPDYWGQGTQVTVSS
B15: DGL296 (bispecific antibody, V domains shown)
V domain 1: B11 V domain 1
V domain 2: B6 V domain 2
B16: DGL252 (bispecific antibody, V domains shown)
V domain 1: B11 V domain 1
V domain 2: QVQLQESGGGLVQAGGSLRLSCAASASIFSRYAIGWYRQAPGKQRDLVAAITSGGTTNYADSVKGRFTISTDNAKNTVYLQMNSLKPEDTAVYSCAAGDSRANYYWGQGTQVTVSS
B17: DGL254 (bispecific antibody, V domains shown)
V domain 1: B11 V domain 1
V domain 2: QVQLVESGGGLVQAGGSLRLSCAASESIFSFVAMGWYRQAPGKQRELVVKISSGGSTNYADSVKGRFTISRDNAKNTVYLEMNSLKFEDTGVYYCNAVRPNGMDYWGKGTLVTVSS
B18: DGL299 (bispecific antibody, V domains shown)
V domain 1: B9 V domain 1
V domain 2: B8 V domain 2
B19: DGL300 (bispecific antibody, V domains shown)
V domain 1: QVQLQESGGGLVQPGGSLRLSCAASGSIFSTKGLGWYRQAPGEQRELVAGISSAGWIFYTQSVKGRFTMSRDNAKNTVYLQMNSLKPEDTAVYYCNSAQSGVPLRSWGQGTQVTVAS
V domain 2: B8 V domain 2
B20: DGL301 (bispecific antibody, V domains shown)
V domain 1: B7 V domain 1
V domain 2: B8 V domain 2

Target: T1, IL-18 receptor (IL-18Rα/IL-18Rβ) …
Experiment: cell-based or functional assay

HEK-Blue IL-18: Abs 405 | HEK-Blue IL-18: Fold over Background | Binder
2.1 Abs | 8.6 fold | B1
0.44 Abs | 1.8 fold | B2
0.53 Abs | 2.2 fold | B3
0.12 Abs | 0.5 fold | B4
0.42 Abs | 1.7 fold | B5
2.83 Abs | 12.3 fold | B6
0.46 Abs | 2 fold | B7
0.97 Abs | 4.2 fold | B8
0.86 Abs | 3.7 fold | B9
0.63 Abs | 2.7 fold | B10
0.49 Abs | 2 fold | B11
0.29 Abs | 1.2 fold | B12
0.32 Abs | 1.3 fold | B13
0.31 Abs | 1.3 fold | B14
0.66 Abs | 2.9 fold | B15
0.32 Abs | 1.3 fold | B16
0.3 Abs | 1.2 fold | B17
0.91 Abs | 4 fold | B18
1.07 Abs | 4.7 fold | B19
0.66 Abs | 2.9 fold | B20
